{"source": "patent US20160264684A1", "about": "“GLYCAN-INTERACTING COMPOUNDS AND METHODS OF USE” (SIAMAB THERAPEUTICS, INC., priority 2013, published 2016)", "key": {"[1]": {"tested_on": "E3-STn cells", "experiment": "E3-STn transfected murine breast tumor allograft model, tumor volume", "assay_type": "in vivo, mouse", "details": "7G9-1A8 25 mg/kg ip twice weekly 3 weeks, Paclitaxel daily 5 days", "description": "3 test articles were evaluated during the study.\nStandard deviation values are listed in parenthesis."}, "[2]": {"experiment": "E3-STn allograft model, complete blood count (CBC)", "assay_type": "in vivo, mouse", "set-up": "Red blood cells / White blood cells: unit not given here", "details": "CBC at end of study, antibody-treated mice", "description": "At the end of the study, a complete blood count (CBC) was obtained for 5 mice treated with antibody as well as 3 mice treated with vehicle control. Blood was collected from all mice via terminal cardiac puncture and processed for plasma. Blood was placed in EDTA microtainer tubes (BD & Co., Franklin Lakes, N.J.) then centrifuged. Plasma layers were then removed and snap frozen in cryo vials (Thermo-Fisher Scientific, Rochester, N.Y.) and stored at −80° C. until analysis. Analysis was carried out to look for levels of a variety of factors."}, "[3]": {"experiment": "Pathological evaluation of organs (H&E)", "assay_type": "in vivo, mouse", "description": "At the end of the study described in Example 22, three mice from the vehicle control group and five mice that received 7G9-1A8 were chosen at random for post-study pathology assessment. Brain, colon, intestine, heart, kidney, liver, lung, mandibular salivary gland, pancreas, spleen, stomach, adrenal gland and thyroid gland organs were collected from each mouse. The organs were fixed in formalin (VWR; Radnor, Pa.) for about 48 hours, transferred to 70% ethanol (Sigma-Aldrich; St. Louis, Mo.), and then processed for standard H&E staining.\nThe H&E stained tissue slides were examined for pathology review. Liver sections from each animal had multifocal inflammation with or without concomitant hepatocellular necrosis. The histo-pathological changes were minimal to mild in severity. There was no appreciable difference in the morphology of lesions among vehicle control group mice and mice that received 7G9-1A8."}, "[4]": {"details": "mouse, in vivo"}}, "data": [{"molecule": "7G9-1A8: 7G9-1A8 IgG2b κ antibody; heavy chain variable domain SEQ ID NO 12, light chain SEQ ID NO 9 (antibody, V domains shown) VH: QVQLKESGPGLVAPSQNLSITCTVSGFSLTSYGVNWVRQPPGKGLEWLGVIWGDGSTNYHSALISRLIISKENSKSQVFLKLNSLQTNDTATYYCTKGFVYWGQGTLVTVSA VL: QIVLTQSPAIMSASPGEKVTMTCSASSSVSYMHWYQQKSGTSPKRWIFDTSKLASGVPARFSGSGSGTSYSLTISSMEAEDAATYYCQQWSSNLLTFGAGTKLELK", "values": [{"measurement": "Average Tumor Volume", "setting": "[1]; day 1 of treatment", "result": 112.4, "unit": "mm^3"}, {"measurement": "Average Tumor Volume", "setting": "[1]; day 4 of treatment", "result": 148.7, "unit": "mm^3"}, {"measurement": "Average Tumor Volume", "setting": "[1]; day 6 of treatment", "result": 161.9, "unit": "mm^3"}, {"measurement": "Average Tumor Volume", "setting": "[1]; day 8 of treatment", "result": 152.8, "unit": "mm^3"}, {"measurement": "Average Tumor Volume", "setting": "[1]; day 11 of treatment", "result": 136.3, "unit": "mm^3"}, {"measurement": "Average Tumor Volume", "setting": "[1]; day 13 of treatment", "result": 118.4, "unit": "mm^3"}, {"measurement": "Average Tumor Volume", "setting": "[1]; day 15 of treatment", "result": 105.1, "unit": "mm^3"}, {"measurement": "Average Tumor Volume", "setting": "[1]; day 18 of treatment", "result": 99.5, "unit": "mm^3"}, {"measurement": "Average Tumor Volume", "setting": "[1]; day 20 of treatment", "result": 91.7, "unit": "mm^3"}, {"measurement": "Average Tumor Volume", "setting": "[1]; day 22", "result": 105.2, "unit": "mm^3"}, {"measurement": "Average Tumor Volume", "setting": "[1]; day 26", "result": 102.8, "unit": "mm^3"}, {"measurement": "Average Tumor Volume", "setting": "[1]; day 27", "result": 107.4, "unit": "mm^3"}, {"measurement": "Average Tumor Volume", "setting": "[1]; day 29", "result": 147.1, "unit": "mm^3"}, {"measurement": "Average Tumor Volume", "setting": "[1]; day 32", "result": 160.6, "unit": "mm^3"}, {"measurement": "Average Tumor Volume", "setting": "[1]; day 34", "result": 164.7, "unit": "mm^3"}, {"measurement": "Average Tumor Volume", "setting": "[1]; day 36", "result": 212.1, "unit": "mm^3"}, {"measurement": "Average Tumor Volume", "setting": "[1]; day 39", "result": 206.6, "unit": "mm^3"}, {"measurement": "Average Tumor Volume", "setting": "[1]; day 41", "result": 235.3, "unit": "mm^3"}, {"measurement": "% Lymphocytes", "setting": "[2]", "result": 44.4, "unit": "%"}, {"measurement": "% Monocytes", "setting": "[2]", "result": 4.6, "unit": "%"}, {"measurement": "% Neutrophils (Segmented)", "setting": "[2]", "result": 51.0, "unit": "%"}, {"measurement": "Hematocrit", "setting": "[2]", "result": 46.9, "unit": "%"}, {"measurement": "Hemoglobin", "setting": "[2]", "result": 16.0, "unit": "g/dL"}, {"measurement": "Lymphocytes", "setting": "[2]", "result": "5.6 10^9/L"}, {"measurement": "Mean Corpuscular Hemoglobin", "setting": "[2]", "result": 16.2, "unit": "pg"}, {"measurement": "Mean Corpuscular Hemoglobin Concentration", "setting": "[2]", "result": 34.2, "unit": "g/dL"}, {"measurement": "Mean Corpuscular Volume", "setting": "[2]", "result": 47.4, "unit": "fL"}, {"measurement": "Mean platelet volume", "setting": "[2]", "result": 7.4, "unit": "fL"}, {"measurement": "Monocytes", "setting": "[2]", "result": "0.7 10^9/L"}, {"measurement": "Neutrophils", "setting": "[2]", "result": "7.6 10^9/L"}, {"measurement": "Platelet Cell Distribution Width", "setting": "[2]", "result": 32.2, "unit": "%"}, {"measurement": "Platelet count", "setting": "[2]", "result": "712.2 10^3"}, {"measurement": "Red Cell Distribution Width", "setting": "[2]", "result": 19.0, "unit": "%"}, {"measurement": "Red blood cells", "setting": "[2]", "result": 9.9}, {"measurement": "White blood cells", "setting": "[2]; blood by terminal cardiac puncture", "result": 13.9}, {"measurement": "liver histo-pathology vs vehicle control group", "setting": "[3]; 5 treated, 3 vehicle mice", "result": "no significant difference between the groups"}, {"measurement": "neutrophil aggregation in the muscularis mucosa of the stomach", "setting": "[3]; seen in two vehicle control mice", "result": "not observed"}, {"measurement": "weight gain over the course of treatment as compared to vehicle control", "setting": "[4]", "result": "higher percent gain in weight"}]}]}
